# Assay results published in US9340579B2, “DPP-4 inhibitor” (NIPPI, INCORPORATED, priority 2011, dated 2016).
# Square brackets hold non-standard residues; d marks the D form. Ends that are not written are not given here. Hyp = O=C(O)[C@@H]1C[C@@H](O)CN1
# Target: DPP-4 (manufactured by Sigma, derived from porcine kidney) (porcine, UniProt P22411 38-766, limits assumed)
# Assay: cell-based or functional assay
# Sequence of DPP-4 (manufactured by Sigma, derived from porcine kidney) (P22411 38-766 limits assumed): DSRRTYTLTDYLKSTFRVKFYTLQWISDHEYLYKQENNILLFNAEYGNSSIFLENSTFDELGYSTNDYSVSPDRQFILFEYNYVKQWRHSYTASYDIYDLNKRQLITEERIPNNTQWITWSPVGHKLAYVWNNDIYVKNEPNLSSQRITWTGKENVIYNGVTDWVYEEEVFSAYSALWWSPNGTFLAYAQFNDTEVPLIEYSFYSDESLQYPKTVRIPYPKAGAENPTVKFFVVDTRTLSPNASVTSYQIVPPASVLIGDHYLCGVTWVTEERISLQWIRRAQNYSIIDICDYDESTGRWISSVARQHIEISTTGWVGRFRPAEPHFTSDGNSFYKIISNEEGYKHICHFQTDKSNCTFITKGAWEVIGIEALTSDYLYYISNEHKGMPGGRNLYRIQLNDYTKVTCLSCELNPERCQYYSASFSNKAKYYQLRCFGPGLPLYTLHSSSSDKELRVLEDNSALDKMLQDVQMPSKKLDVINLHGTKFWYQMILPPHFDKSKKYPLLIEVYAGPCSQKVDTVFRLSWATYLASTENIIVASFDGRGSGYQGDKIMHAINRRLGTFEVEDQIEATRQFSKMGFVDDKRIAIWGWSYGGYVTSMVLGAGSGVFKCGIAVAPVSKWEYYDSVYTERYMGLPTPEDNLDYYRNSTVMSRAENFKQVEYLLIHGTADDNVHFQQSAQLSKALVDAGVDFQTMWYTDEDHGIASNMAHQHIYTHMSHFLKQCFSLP
row,Inhibition rate (%) at 0.35 mg/ml time,Binder
1,0%,Pro-[Hyp] [Pro-Hyp]
2,0%,Ala-[Hyp] [Ala-Hyp]
3,0%,[Hyp]-Gly [Hyp-Gly]
